Laboratory results as given in patent publication US20200291118A1.
Where two headings read alike, the source gives them in different places.

Molecular target: hPD-1-hIgGFc antigen (human), Q15116
Test: ELISA on coated hPD-1-hIgGFc, ligand PD-L2-his tag 0.3 µg/ml detected; no antibody (row 'blank' under HX009-5)

hPD-1-hIgGFc antigen (human), Q15116, sequence (Q15116 25-167 limits assumed): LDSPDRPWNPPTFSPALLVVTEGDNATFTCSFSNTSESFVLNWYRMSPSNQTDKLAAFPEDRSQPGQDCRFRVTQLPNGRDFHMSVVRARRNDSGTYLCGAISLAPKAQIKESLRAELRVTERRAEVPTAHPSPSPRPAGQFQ

B1: PD-L2-his tag, Q9BQ51 20-220 (ligand, UniProt Q9BQ51 20-220, looked up, not shown: small tags and cut ends)
chain: LFTVTVPKELYIIEHGSNVTLECNFDTGSHVNLGAITASLQKVENDTSPHRERATLLEEQLPLGKASFHIPQVQVRDEGQYQCIIIYGVAWDYKYLTLKVKASYRKINTHILKVPETDEVELTCQATGYPLAEVSWPNVSVPANTSHSRTPEGLYQVTSVLRLKPPPGRNFSCVFWNTHVRELTLASIDLQSQMEPRTHPT
B1 was tested, and the absorbance at 450 nm was 1.1 and the absorbance at 450 nm (remark: other sources report otherwise) was 1.09.
